The text below walks through data of patent publication US8673313B2, “Cell penetrating peptides and its use fused to biomolecules with therapeutic action” (priority 2007, dated 2014).

The test system of one test is J774 cells. Put plainly: Western blot: internalization of the cargo protein E7 to the cell. Format: cell-based. Conditions: 25 μM protein, J774, 4 hours at 37° C., FIG. 5. The method, then:
The cells J774 grown overnight at 37° C. and 5% of CO2 with RPMI 1640, 10% inactivated calf fetal serum and 2 mM de glutamine. After that, the cell were aliquoted in tubes with 5×10^6 cells each and incubated with 25 μM of fusion protein LALF-E7, 25 μM of protein E7 and PBS during 4 hours at 37° C. The sedimentation of the cells was made by a centrifugation to 1000 rpm by 10 minutes. Wash pellet in three changes of PBS. Cells were ruptured in 100 μL of RIPA buffer (Promega) mixed in vortex per 10 second and 2 min in ice. The sedimentation of the broken cells was made by a centrifugation to 12000 rpm by 15 minutes. Protein concentration was determined to the cell extract and rum 10 μg of total protein in 15% polyacrilamide gel. Subsequently the gel was transferred to a nitrocellulose membrane. The membrane was incubated for 2 hours at room temperature with an IgG goat polyclonal antibody anti-E7 HPV 16 (Santa Cruz) diluted in PBS (1:100). Wash in three changes of PBS. Subsequently, the membrane was incubated for 45 minutes at room temperature and in a dark room with an anti-goat IgG peroxidase conjugate (Sigma) diluted in PBS (1:5000). Wash in three changes of PBS. Finally the ECL system from Amersham Pharmacia Biotech was used.
Background: A western blot detects proteins with antibodies after separation by electrophoresis.

In test [1] the test system is TC-1 tumor cell line expressing the HPV16 E7 protein. Put plainly: Treatment of established TC-1 tumors in mice (Example 8). Format: in vivo, Mice C57BL/6. As to conditions: two immunizations every 14 days from day 10, volume at the 30 days, p<0.01 vs E7, LALF and PBS, FIG. 7. The source says: In order to observe the regression of established tumors from the treatment with the recombinant protein fusion LALF-E7, the tumor cell line TC-1, was used. The TC-1 tumor cell line expressing the HPV16 E7 protein was derived from primary lung cells of C57Bl/6 mice by immortalization and transformation with HPV16 E6 and E7 genes and an activated human C-Ha-ras gene as described in Lin et al. (1996)) Treatment of established tumors with a novel vaccine that enhances major histocompatibility class II presentation of tumor antigen. Cancer Res. 56:21-26. For tumor inoculation, TC-1 cells, supplied by Dr. T.-C. Wu (The Johns Hopkins Medical Institutions, Baltimore, Md.), were grown to 60-70% confluence in RPMI1640 medium supplemented with 10% fetal calf serum (Hyclone, Logan, Utah), nonessential amino acids, glutamine, pyruvate, gentamycin, beta-mercaptoethanol and 0.4 mg/mL Geneticin at 37° C. Cells were harvested by trypsinization and resuspended in Hank's buffer solution at […].
Mice C57BL/6 was inoculated with 2×10^5 cells by subcutaneous injection in right leg in volumes of 0.2 mL. […] The tumor kinetic in the different groups was followed by the tumor volume which was determined using electronic calipers and taking the measures in two orthogonal dimensions. Tumor volumes (mm^3) were calculated from these measurements according to (length×width^2)/2. […]

B1: LALF-E7: recombinant fusion of CPP LALF to E7 protein of HPV 16, cysteine per glycine in Rb site (SEQ ID N0. 9 y 10) (protein)
chain: MAEFHYRIKPTFRRLKWKYKGKFWKASHGDTPTLHEYMLDLQPETTDLYGYEQLNDSSEEEDEIDGPAGQAEPDRAHYNIVTFCCKCDSTLRLCVQSTHVDIRTLEDLLMGTLGIVCPICSQKPGSRAHHHHHH
modifications: Artificial Sequence Description Protein fusion CPP LALF-E7
For B1, in the test on J774 cells, the “detection of protein in cell extract by anti-E7 antibody (Western blot)” value was “recognized by the anti-E7 antibody”. Further, the “effect on growth of established tumors (tumor volume)” value in test [1] was “full inhibition of growth of established tumors”.
